Key:
[1] = biological target: T1, bacteriorhodopsin from Halobacterium salinarum (Halobacterium salinarum), P02945; experiment: atomic force microscopy (AFM) imaging; purple membrane on KOH-treated glass (20 mM Tris pH ~8.5, 200 mM KCl, 20 mM MgCl2) and on mica (10 mM Tris pH ~7.6, 150 mM KCl); tapping mode, ~30 °C; correlation averaging; conditions: remark: other sources report otherwise
T1 chain: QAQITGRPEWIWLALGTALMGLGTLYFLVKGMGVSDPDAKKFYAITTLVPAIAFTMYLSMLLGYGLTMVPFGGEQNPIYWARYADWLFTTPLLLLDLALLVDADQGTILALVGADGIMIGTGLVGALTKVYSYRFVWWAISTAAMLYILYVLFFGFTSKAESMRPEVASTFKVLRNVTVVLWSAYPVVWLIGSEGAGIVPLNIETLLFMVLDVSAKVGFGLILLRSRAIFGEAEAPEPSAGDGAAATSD

ATPase SecA = biological target: T2, ATPase SecA (E. coli, UniProt P10408 1-901); experiment: atomic force microscopy (AFM) imaging; proteoliposomes of coassembled SecYEG and SecA deposited on KOH-treated glass (height histograms also on mica); tapping mode, ~30 °C, 10 mM HEPES pH 8.0, 200 mM KAc, 5 mM MgAc2; single translocons tracked for >1800 s; conditions: both partners purified
T2 construct: SecA, ATPase of the general secretory system of E. coli; SecA was added for coassembly 'at 5 μM dimer'; Zinc is kept in SecA by the purification; also called peripheral membrane protein SecA; source: purified from the supernatant of lysed cells (QAE column)
T2 sequence (P10408 whole entry): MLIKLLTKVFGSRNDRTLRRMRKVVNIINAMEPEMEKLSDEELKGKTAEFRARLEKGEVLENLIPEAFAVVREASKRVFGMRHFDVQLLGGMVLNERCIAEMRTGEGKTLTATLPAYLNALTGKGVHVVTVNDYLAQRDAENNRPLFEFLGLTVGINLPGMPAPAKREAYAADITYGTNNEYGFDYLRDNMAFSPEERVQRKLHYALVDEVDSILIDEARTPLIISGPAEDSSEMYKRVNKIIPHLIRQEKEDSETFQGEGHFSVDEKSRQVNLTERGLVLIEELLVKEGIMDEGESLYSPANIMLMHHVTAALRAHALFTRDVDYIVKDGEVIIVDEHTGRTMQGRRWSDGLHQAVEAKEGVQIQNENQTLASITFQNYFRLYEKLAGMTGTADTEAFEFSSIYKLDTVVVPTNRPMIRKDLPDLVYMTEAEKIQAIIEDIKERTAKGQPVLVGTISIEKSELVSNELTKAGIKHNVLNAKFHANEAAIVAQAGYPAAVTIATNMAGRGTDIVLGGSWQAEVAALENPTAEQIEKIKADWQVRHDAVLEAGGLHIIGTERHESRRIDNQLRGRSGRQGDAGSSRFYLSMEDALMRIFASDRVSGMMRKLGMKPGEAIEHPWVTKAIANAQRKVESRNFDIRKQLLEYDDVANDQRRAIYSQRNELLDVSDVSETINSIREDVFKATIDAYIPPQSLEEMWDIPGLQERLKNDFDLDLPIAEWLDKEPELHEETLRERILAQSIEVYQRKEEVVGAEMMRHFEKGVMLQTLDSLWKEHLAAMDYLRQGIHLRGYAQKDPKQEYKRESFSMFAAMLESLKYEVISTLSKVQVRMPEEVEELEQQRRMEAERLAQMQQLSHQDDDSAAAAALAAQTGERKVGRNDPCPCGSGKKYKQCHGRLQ

B1: bacteriorhodopsin from Halobacterium salinarum, P02945 14-262 (natural protein)
chain: QAQITGRPEWIWLALGTALMGLGTLYFLVKGMGVSDPDAKKFYAITTLVPAIAFTMYLSMLLGYGLTMVPFGGEQNPIYWARYADWLFTTPLLLLDLALLVDADQGTILALVGADGIMIGTGLVGALTKVYSYRFVWWAISTAAMLYILYVLFFGFTSKAESMRPEVASTFKVLRNVTVVLWSAYPVVWLIGSEGAGIVPLNIETLLFMVLDVSAKVGFGLILLRSRAIFGEAEAPEPSAGDGAAATSD
modifications: here or on the partner: retinal chromophore; retinal chromophore
[1]
  stoichiometry N: 3

B2: SecYEG translocon from Escherichia coli (complex, E. coli)
chain 1: MAKQPGLDFQSAKGGLGELKRRLLFVIGALIVFRIGSFIPIPGIDAAVLAKLLEQQRGTIIEMFNMFSGGALSRASIFALGIMPYISASIIIQLLTVVHPTLAEIKKEGESGRRKISQYTRYGTLVLAIFQSIGIATGLPNMPGMQGLVINPGFAFYFTAVVSLVTGTMFLMWLGEQITERGIGNGISIIIFAGIVAGLPPAIAHTIEQARQGDLHFLVLLLVAVLVFAVTFFVVFVERGQRRIVVNYAKRQQGRRVYAAQSTHLPLKVNMAGVIPAIFASSIILFPATIASWFGGGTGWNWLTTISLYLQPGQPLYVLLYASAIIFFSFFYTALVFNPRETADNLKKSGAFVPGIRPGEQTAKYIDKVMTRLTLVGALYITFISLIPEFMRDAMKVPFYFGGTSLLIVVVVIMDFMAQVQTLMMSSQYESALKKANLKGYGR
chain 2: MSANTEAQGSGRGLEAMKWVVVVALLLVAIVGNYLYRDIMLPLRALAVVILIAAAGGVALLTTKGKATVAFAREARTEVRKVIWPTRQETLHTTLIVAAVTAVMSLILWGLDGILVRLVSFITGLRF
chain 3: MYEALLVVFLIVAIGLVGLIMLQQGKGADMGASFGAGASATLFGSSGSGNFMTRMTALLATLFFIISLVLGNINSNKTNKGSEWENLSAPAKTEQTQPAAPAKPTSDIPN
notes: SecY of the E. coli translocon SecYEG, with C329S and C385S; SecE of the E. coli translocon SecYEG; SecG of the E. coli translocon SecYEG; In the assay the complex stood in a lipid bilayer supported by glass (or mica); also called bacterial translocon; copies: + +
ATPase SecA
  binding result: binds

Reference: article PMC4521160, “Glass is a Viable Substrate for Precision Force Microscopy of Membrane Proteins” (Scientific Reports, 2015)
